From paper PMC5906480, “Tau Antibody Structure Reveals a Molecular Switch Defining a Pathological Conformation of the Tau Protein” (Scientific Reports, 2018)

Experiments:
[1] = test system: tau in Alzheimer's disease brain fractions; assay: Western and dot blot, Alzheimer's disease brain; assay type: binding, human
Method: (§1) Mice were euthanized by cervical dislocation. Brains were quickly removed, weighed and divided sagittally down the midline to yield two hemispheres. One hemisphere was parted from the cerebellum and hindbrain, the forebrain containing cerebral cortex and hippocampus was snap-frozen on dry ice and stored at −80 °C until use for biochemical analysis. Frontal cortices from 4 AD donors (2 males and 2 females) and 4 non-demented healthy controls (HC, 2 males and 2 females) were obtained from Cambridge Bioscience (Cambridge, UK). The brain tissue samples were fresh-frozen and stored at −80 °C until used for biochemical analysis. All donors were of Caucasian race. Age of AD donors: 76–91 years. Age of the HC donors: 57–80 years. Post-mortem delays: 3–8 hours.
Brain tissue extraction was performed as described previously. Tissues were homogenized in 10 volumes of Tris-buffered saline containing protease and phosphatase inhibitors as follows: 50 mM Tris/HCl (pH 7.4); 274 mM NaCl; 5 mM KCl; 1% protease inhibitor mixture (Roche); 1% phosphatase inhibitor cocktail I & II (Sigma); and 1 mM phenylmethylsulfonyl fluoride (PMSF; Sigma). The homogenates were centrifuged at 27,000 × g for 20 min at 4 °C to obtain supernatant (S1) and pellet fractions. Pellets were re-homogenized in 5 volumes of high salt/sucrose buffer (0.8 M NaCl, 10% sucrose, 10 mM Tris/HCl, [pH 7.4], 1 mM EGTA, 1 mM PMSF) and centrifuged as above. The supernatants were collected and incubated with sarkosyl (1% final concentration; Sigma) for one hour at 37 °C, followed by centrifugation at 150,000 × g for one hour at 4 °C to obtain sarkosyl-insoluble pellets, referred to as P3. The P3 pellet was re-suspended in TE buffer (10 mM Tris/HCl [pH 8.0], 1 mM EDTA) to a volume equivalent to half of the original volume used for the brain homogenates. S1 and P3 fractions isolated from the individual 4 AD and 4 HC brains were pooled and used as AD pool and HC pool for western and dot blot analysis.
(§2) Samples were boiled in 1 × LDS loading buffer and 100 mM DTT. […] Tau and pTau levels were assessed in the samples using 1 μg/mL C5.2 overnight at 4 °C. A secondary fluorophore conjugated IgG antibody was used (IRDye 680 Goat anti-mouse, LICOR biosciences) and the signal was quantified using Odyssey CLx and Image studio software (LI-COR biosciences).
(§3) 1 μl sample of S1 and P3 isolated from 24 weeks old rTg4510 and non-transgenic littermate (non-tg) mice or from four pooled Alzheimer’s disease (AD) and healthy control (HC) brains was spotted on nitrocellulose membranes. […] Bound antibodies were detected using an enhanced chemiluminescence system (ECL PLUS kit; Perkin Elmer).

[2] = test system: normal tau in the soluble tau fraction (S1) from healthy control subjects; assay: Western and dot blot, healthy control brain; assay type: binding, human; conditions: C5.2 1 µg/mL overnight 4 °C, pool of 4 healthy control donors
Method: as §1, with “Post-mortem delays: 3–8 hours.” left out
as §2, §3

[3] = test system: normal tau in brain sections from healthy control subjects (prefrontal cortex); assay: Immunohistochemistry, healthy control brain sections; assay type: binding, human; conditions: C5.2 at 0.1 to 1 μg/mL, overnight 4 °C, paraffin sections
Method: (§4) Paraffin sections of 4 μm thickness were prepared from blocks of PFA-fixed prefrontal cortex from AD donors and non-demented controls obtained from Tissue Solutions (Glasgow, UK). The sections were deparaffinised, rehydrated and subjected to antigen retrieval by boiling in 10 mM citrate buffer pH 6 for 5 min. Endogenous peroxidase was quenched for 10 min with 1% H2O2 in PBS. Sections were then incubated 20 min in blocking buffer followed by overnight incubation in a humidified chamber at 4 °C with primary antibody at 0.1 to 1 μg/mL in incubation buffer. Between each incubation step, the sections were washed 3 × 10 min in wash buffer. Subsequently, the sections were incubated at room temperature in the following solutions; 60 min with a biotinylated secondary Ab diluted 1:200 in wash buffer; 60 min in ABC; 20 min in DAB. Finally, the sections were counterstained with hematoxylin and coverslipped.

[4] = test system: tau pathology in Alzheimer's disease brain sections (prefrontal cortex); assay: Immunohistochemistry, Alzheimer's disease brain sections; assay type: binding, human; conditions: C5.2 at 0.1 to 1 μg/mL, overnight 4 °C, paraffin sections
Method: as §4

pS396 peptide = assay: ELISA, pS396 peptide; assay type: binding
Method: Immulon 4 HBX (extra high-binding) 96-well microtiter plates (Thermo Scientific) were coated with the same peptide used for crystallization diluted to 2 μg/mL in phosphate-buffered saline (PBS) and left overnight at 4 °C (Table 1). Plates were then washed three times in PBS-T (PBS containing 0.05% Tween-20) and blocked in 5% non-fat milk and 3% bovine serum albumin in PBS for 2 hours at room temperature. Plates were subsequently washed 3 times in PBS-T before C5.2 was serially diluted (8 μg/mL–0.05 ng/mL) in PBS and incubated for 1 hour at room temperature. Then, alkaline phosphatase-conjugated goat anti-mouse IgG (Southern Biotech) was diluted 1:2000 in PBS and incubated for 30 minutes at room temperature. Finally, bound IgG was analyzed by addition of p-nitrophenyl phosphate substrate (Thermo Scientific) and measurement at 405 nm on a VersaMax Microplate Reader.
In order to evaluate the ability of C5.2 to exclusively target the phosphorylated epitope, we performed an enzyme-linked immunosorbent assay (ELISA). The peptides used in the assay are the same peptides used for crystallization and diluted to a concentration of 2 μg/mL (Table 1). Binding curves were generated from ELISA data by maintaining plate-bound peptide concentrations and serially diluting C5.2 IgG (Fig. 1c).

B1: C5.2: novel mouse monoclonal antibody that targets the pS396 tau epitope region (antibody, V domains shown)
VH: QVQLQQSDAELVKPGASVKISCKASGYTFTDRTIHWVKQRPEQGLEWIGYIYPGDDSTKYNDMFKAKATLTADKSSNTAYMQLNSLTSDDSAVYFCARRGTMDYWGQGTSVTVSS
VL: DVQMIQSPSSLSASLGDIVTMTCQASQDTSINLNWFQQKPGKAPKLLIYGASNLEDGVPSRFSGSRYGTDFTLTISSLEDEDMATYFCLQHTYLPFTFGSGTKLEIK
Binding to insoluble tau fraction (P3) ([1]; C5.2 1 µg/mL overnight 4 °C, sarkosyl-insoluble P3, pool of 4 AD donors): binds predominantly to an insoluble tau fraction (P3) | Reactivity to soluble tau fraction (S1) ([1]; C5.2 1 µg/mL overnight 4 °C, soluble S1, pool of 4 AD donors): also has reactivity to a soluble tau fraction (S1) | Specificity for pathological tau protein ([1]; overall statement from blots and immunohistochemistry (Fig. 1), AD and rTg4510 vs controls): specific for pathological tau protein | Bands recognized in S1 and P3 ([1]; western blot, C5.2 1 µg/mL, pool of 4 AD donors): recognizes similar bands in both fractions | Detection of normal tau (S1) [2]: not detected | Binding to normal tau in brain sections [3]: does not bind to normal tau | Binding in AD brain sections [4]: binds strongly to tangles, pre-tangles and dystrophic neurites | Phospho-specificity (pS396 peptide; ELISA, vs pS404 and non-phosphorylated peptides): pS396 phosphorylation state-specific mAb | Association with peptide (ELISA) (pS396 peptide; plate coated with peptide 2 μg/mL, C5.2 IgG 8 μg/mL–0.05 ng/mL, 1 h room temperature, 405 nm): strong association
